Data set [1] addresses HtrAHpS221A from H. pylori strain N6 (Helicobacter pylori strain N6) (UniProt B5Z6H5). Description: AUC.
Data set [2] deals with the molecule itself. Description: SEC; Superose 12HR 10/30, 300 mM NaCl, 50 mM Na-phosphate pH 6.5 or 8.0, room temperature; refolded HtrA variant 41 uM without substrate. Background: In gel filtration, larger molecules generally elute earlier.

This is an account of results in PMC6509562, “Properties of the HtrA Protease From Bacterium Helicobacter pylori Whose Activity Is Indispensable for Growth Under Stress Conditions” (Frontiers in Microbiology, 2019).

Consider “HtrAHpS221A from H. pylori strain N6 (from UniProt B5Z6H5 1-476) (enzyme)”, for which, in data set [1], the content of peak 1 (6.1 S) at 0.65 mg/ml is 38%, the content of peak 1 (6.1 S) at 1.6 mg/ml was 38%, the content of peak 1 (6.1 S) at 3.3 mg/ml stood at 38% and the content of peak 2 (8.9 S) at 3.3 mg/ml is 3.4%. In data set [1], the content of peak 3 (10.3 S) at 1.6 mg/ml turned out to be 8.8%, the content of peak 3 (10.6 S) at 3.3 mg/ml amounted to 5.1%, the content of peak 3 (11.0 S) at 0.65 mg/ml turned out to be 12% and the content of peak 4 (12.4 S) at 3.3 mg/ml worked out at 3.8%. In data set [1], this molecule registered a content of peak 4 (13.0 S) at 1.6 mg/ml of 3.2%, a content of peak 5 (15.7 S) at 3.3 mg/ml of 9%, a content of peak 5 (15.8 S) at 0.65 mg/ml of 8.1% and a content of peak 5 (15.8 S) at 1.6 mg/ml of 7.9%. In addition, in data set [1], the content of peak 6 (19.5 S) at 3.3 mg/ml stood at 28%, the content of peak 6 (19.9 S) at 0.65 mg/ml was determined as 29%, the content of peak 6 (19.9 S) at 1.6 mg/ml was determined as 30% and the content of peak 7 (22.8 S) at 3.3 mg/ml stood at 3.1%. In data set [1], this molecule showed a content of peak 8 (24.5 S) at 0.65 mg/ml of 4.8%, a content of peak 8 (25.6 S) at 1.6 mg/ml of 5.9% and a content of peak 8 (25.8 S) at 3.3 mg/ml of 3.6%.

B1: HtrAEcS210A from Escherichia coli (enzyme, UniProt P0C0V0 27-474, looked up)
chain: AETSSATTAQQMPSLAPMLEKVMPSVVSINVEGSTTVNTPRMPRNFQQFFGDDSPFCQEGSPFQSSPFCQGGQGGNGGGQQQKFMALGSGVIIDADKGYVVTNNHVVDNATVIKVQLSDGRKFDAKMVGKDPRSDIALIQIQNPKNLTAIKMADSDALRVGDYTVAIGNPFGLGETVTSGIVSALGRSGLNAENYENFIQTDAAINRGNAGGALVNLNGELIGINTAILAPDGGNIGIGFAIPSNMVKNLTSQMVEYGQVKRGELGIMGTELNSELAKAMKVDAQRGAFVSQVLPNSSAAKAGIKAGDVITSLNGKPISSFAALRAQVGTMPVGSKLTLGLLRDGKQVNVNLELQQSSQNQVDSSSIFNGIEGAEMSNKGKDQGVVVNNVKTGTPAAQIGLKKGDVIIGANQQAVKNIAELRKVLDSKPSVLALNIQRGDSTIYLLMQ
notes: also called DegP S210A; S/A
The term stoichiometry N denotes a count of units in the complex or per binding partner. For the molecule B1, the “stoichiometry N” value in data set [2] came to 6.
